These results are taken from patent US20140248635A1, “ALPHA-TUBULIN […]” (University of Georgia Research Foundation, Inc., priority 2010, published 2014).

In test [1] the target is T1, K40 of α-tubulin (Tetrahymena MEC17-KO axonemes or tubulin) (Tetrahymena thermophila, UniProt P41351).
T1 construct: Total tubulin was purified from the MEC17-KO strain of Tetrahymena; endogenous in cells; host or cells: Tetrahymena MEC17-KO strain (axonemes from cilia, or DEAE-purified tubulin)
Put plainly: In vitro tubulin acetyltransferase assay: activity of MEC-17 enzyme preparations. It counts as biochemical. As to conditions: for αTAT activity on MEC17-KO axonemes: with acetyl-CoA, western 6-11 B-1. From the text:
(§1) To disrupt the MEC-17 gene in Tetrahymena, we used homologous DNA recombination with a fragment carrying the neo4 marker that replaced the coding region. MEC-17 was overexpressed in Tetrahymena using the MTT1 cadmium-dependent promoter. In C. elegans, MEC-12-K40, MEC-12-Q40, and MEC-12-R40 transgenes were introduced into a single site on chromosome II in the EG4322 strain. Animals homozygous for a MEC-12 transgene and homozygous for the mec-12(e1607) allele were obtained by standard crosses. All touch sensation assays in C. elegans were done using blind scoring. To deplete human MEC-17 (C6Orf134) mRNA in Hela cells, we introduced MEC-17-specific siRNAs (ON-TARGETplus pool, Dharmacon) using Oligofectamine (Invitrogen). To knockdown mec17 expression in zebrafish, MOs designed to target the MEC-17 mRNA (Open Biosystems) were injected into early embryos. ATG-MEC17 MO targets the translation initiation site of mec17 mRNA. SP-MEC17 MO targets the exon3/intron3-4 splice junction, and is expected to result in an aberrant splicing isoform of exon2 to exon 4, producing a frameshift mutation and associated protein truncation. As a negative control, we injected MO with a random sequence (oligo-25N, Gene Tools) or a 5 bp mismatch to the ATG-MEC17 MO. Live embryos were scored for phenotypes at 48 hpf. To produce a recombinant MEC-17 protein, the cDNA sequence of the murine MEC-17 (BF135007, Open Biosystems) was subcloned into pGEX-3× plasmid (GE Healthcare), expressed in BL21 E. coli cells as a GST fusion and purified using GST-Bind kit (Novagen). The in vitro acetylation assays were performed in 50 mM Tris-HCl pH 8.0, […], 0.1 mM EDTA, with purified Tetrahymena MEC-17-KO axonemes or tubulin (purified using DEAE chromatography), recombinant GST-MmMEC-17 enzyme and 10 μM acetyl-CoA. The reaction was detected by western blotting using anti-acetyl-K antibodies.
(§2) To prepare MEC 17-KO axonemes, Tetrahymena cells were grown to the mid-log phase and deciliated by pH shock (Wloga et al., 2008 Eukaryot Cell 7:1362-1372). Cilia were suspended in 1 ml of 1% NP-40 in the axoneme buffer (30 mM HEPES, 20 mM potassium acetate, 5 mM MgSO4, 0.5 mM EDTA, pH 7.6) with Complete protease inhibitors (Roche). After 1-2 min on ice, axonemes were collected by centrifugation (20,000×g, 15 min, 4° C.), suspended in the in vitro acetylation reaction buffer (50 mM Tris HCl, pH 8.0, 10% glycerol, 0.1 mM EDTA, 1 mM DTT) with protease inhibitors and stored at −80° C.
(§3) Total tubulin was purified from the MEC17-KO strain of Tetrahymena using a protocol modified after Yakovich and colleagues (Yakovich et al., 2006 Exp Parasitol 114:289-296). […]

The target in test [2] is T2, K40 of α-tubulin (Tetrahymena MEC17-KO axonemes or tubulin) (Tetrahymena thermophila, UniProt P41351, K40R).
T2 construct: Total tubulin was purified from the MEC17-KO strain of Tetrahymena; endogenous in cells; host or cells: Tetrahymena MEC17-KO strain (axonemes from cilia, or DEAE-purified tubulin)
T2 sequence (P41351 whole entry K40R): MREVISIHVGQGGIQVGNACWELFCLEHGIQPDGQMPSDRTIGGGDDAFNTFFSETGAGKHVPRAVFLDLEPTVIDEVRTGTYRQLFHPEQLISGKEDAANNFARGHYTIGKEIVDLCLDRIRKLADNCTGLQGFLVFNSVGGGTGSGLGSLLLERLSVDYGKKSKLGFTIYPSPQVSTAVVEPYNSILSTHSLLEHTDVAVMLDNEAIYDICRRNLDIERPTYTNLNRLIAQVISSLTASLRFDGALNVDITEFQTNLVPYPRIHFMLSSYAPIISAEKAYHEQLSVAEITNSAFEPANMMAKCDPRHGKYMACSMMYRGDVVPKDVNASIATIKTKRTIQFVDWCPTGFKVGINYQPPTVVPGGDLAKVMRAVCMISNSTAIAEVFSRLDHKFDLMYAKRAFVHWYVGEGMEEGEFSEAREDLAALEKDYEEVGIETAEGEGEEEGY
T2 sequence (P41352 whole entry, further chain): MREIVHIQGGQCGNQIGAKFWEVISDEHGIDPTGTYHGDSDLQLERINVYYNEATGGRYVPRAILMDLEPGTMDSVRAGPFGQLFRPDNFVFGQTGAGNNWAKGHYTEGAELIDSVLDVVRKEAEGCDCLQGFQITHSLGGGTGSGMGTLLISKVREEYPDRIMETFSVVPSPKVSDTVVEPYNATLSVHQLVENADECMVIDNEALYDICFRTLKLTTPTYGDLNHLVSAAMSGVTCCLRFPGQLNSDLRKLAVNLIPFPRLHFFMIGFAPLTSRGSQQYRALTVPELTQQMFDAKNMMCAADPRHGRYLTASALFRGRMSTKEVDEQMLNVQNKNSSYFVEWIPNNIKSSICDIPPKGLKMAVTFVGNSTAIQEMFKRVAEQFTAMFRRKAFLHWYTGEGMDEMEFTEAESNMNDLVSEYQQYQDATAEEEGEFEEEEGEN
Described as above. The test is classed as biochemical. As to conditions: pan acetyl-K antibodies.
Excerpt: as §1, §2, §3

T1 sequence (P41351 whole entry): as the sequence (P41351 whole entry K40R) above, with R40K counted along it
T1 sequence (P41352 whole entry partner): as the sequence (P41352 whole entry, further chain) above

B1: GFP-Mec17p: crude GFP-Mec17p-enriched fraction obtained from transgenic Tetrahymena (protein)
chain: MFKNQLLSLSLRIQKLRLCRQGNQLKVLQKSINQLLFKTQSIDQILQYLQQKKKTHQSILENQNQHIHSIGLVSQLTNQKINKQKNQKAMEFNFIINKLVQLDQQGLGVYIPRASRSKVSSQQEQQLGQVLNTMGERSAIAQGLKQVITNYDKVQGTDQRVYIVAEGRTCQGFLKVGQKNLFYRDMMGNIKEIKPLCVLDFYVHESCQRQGYGKLLFEYMIQCEQTSPEKLAYDRPSPKLIAFLKKHYNLVKYIAQNNNFVVFDQYFRSDASSQNKQNQNTRSYSQPYSDYSSQIPTNYPQQQQQQSNSKSYPYKQENNIDLMQHSSSRNNKEFLNAGRAILSKEEIYKKDNLSQQNIENTLNNINNSQYSTKSQQQQQYQKDYQLDKYENNWGADKNIKKPPFPGQDRQLDKIQQKIQQTERELDVVNQQIIKQRQNLSQDPLTQNHRAQNVYNTNQFGTSPWAQTGFNYYSTSSSNYGNHYTYYKK
modifications: left off: large carriers
notes: crude GFP-Mec17p-enriched fraction obtained from transgenic Tetrahymena
In the case of B1, the “αTAT activity on MEC17-KO axonemes” value in test [1] is recorded as “had K40 αTAT activity”.

B2: GST-MmMEC-17: recombinant murine MEC-17 expressed in E. coli as a GST fusion (protein)
chain: MEFPFDVDALFPERITVLDQHLRPPARRPGTTTPARVDLQQQIMTIVDELGKASAKAQHLPAPITSALRMQSNRHVIYILKDTSARPAGKGAIIGFLKVGYKKLFVLDDREAHNEVEPLCILDFYIHESVQRHGHGRELFQHMLQKERVEPHQLAIDRPSPKLLKFLNKHYNLETTVPQVNNFVIFEGFFAHQHRPPTSSLRATRHSRAAVADPIPAAPARKLPPKRAEGDIKPYSSSDREFLKVAVEPPWPLNRAPRRATPPAHPPPRSSSLGNSPDRGPLRPFVPEQELLRSLRLCPPHPTARLLLATDPGGSPAQRRRTRGTPWGLVAQSCHYSRHGGFNTSFLGTGNQERKQGEQEAEDRSASEDRVLLLDGSGEEPTQTGAPRAQAPPPQSWTVGGDIMNARVIRNLQERRSTRPW
modifications: left off: a dimerising Fc or GST
notes: recombinant murine MEC-17 expressed in E. coli as a GST fusion
For the molecule B2, the “acetylation of R40 axonemes (K40R mutant)” value in test [2] is on record as “failed to acetylate”. Also, the “K40 acetylation activity on purified tubulin” value in test [1] (highly purified tubulin from MEC17-KO cells) is reported as “robust K40 acetylation activity”. In addition, the “αTAT activity on MEC17-KO axonemes” value in test [1] is given as “robust αTAT activity”.
